{"source": "patent US20250002564A1", "about": "(HOSPITAL FOR SICK CHILDREN, published 2025)", "key": {"[1]": {"molecular_target": "T1, mouse FcγRI (mouse, UniProt P26151 25-297)", "T1 sequence (looked up)": "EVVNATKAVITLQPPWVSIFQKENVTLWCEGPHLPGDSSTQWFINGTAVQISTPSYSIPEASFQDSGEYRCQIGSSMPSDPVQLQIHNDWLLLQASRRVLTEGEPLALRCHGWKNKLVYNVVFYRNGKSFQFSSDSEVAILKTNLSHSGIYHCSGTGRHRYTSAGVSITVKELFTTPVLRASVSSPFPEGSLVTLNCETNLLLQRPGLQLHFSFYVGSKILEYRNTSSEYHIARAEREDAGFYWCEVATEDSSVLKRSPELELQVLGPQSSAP"}, "[2]": {"molecular_target": "T2, mouse FcRn (mouse, UniProt Q61559 22-297; P01887 21-119)", "T2 construct": "also called mFcRn", "T2 sequence (looked up) 1": "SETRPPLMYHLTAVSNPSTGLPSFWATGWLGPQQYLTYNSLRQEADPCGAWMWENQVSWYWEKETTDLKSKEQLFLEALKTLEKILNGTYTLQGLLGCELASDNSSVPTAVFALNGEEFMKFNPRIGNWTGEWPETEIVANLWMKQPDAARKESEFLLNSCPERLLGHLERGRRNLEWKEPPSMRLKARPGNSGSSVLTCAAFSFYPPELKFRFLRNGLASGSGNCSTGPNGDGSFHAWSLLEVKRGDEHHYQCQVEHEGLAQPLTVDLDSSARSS", "T2 sequence (looked up) 2": "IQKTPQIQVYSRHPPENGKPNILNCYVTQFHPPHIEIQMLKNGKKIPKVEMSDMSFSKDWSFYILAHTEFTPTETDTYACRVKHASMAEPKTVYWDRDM", "assay": "pH 5.6"}, "[3]": {"molecular_target": "T2, mouse FcRn"}}}
{"binder": "HD37 single chain IgG2a (mouse, anti-hCD19) (antibody, also called mIgG2a control; parental IgG) DILLTQTPASLAVSLGQRATISCKASQSVDYDGDSYLNWYQQIPGQPPKLLIYDASNLVSGIPPRFSGSGSGTDFTLNIHPVEKVDAATYHCQQSTEDPWTFGGGTKLEIKRADAAPTVSIFPPSSEQLTSGGASVVCFLNNFYPKDINVKWKIDGSERQNGVLNSWTDQDSKDSTYSMSSTLTLTKDEYERHNSYTCEATHKTSTSPIVKSFNRNECGGSSGSGSGSTGTSSSGTGTSAGTTGTSASTSGSGSGGGGGSGGGGSAGGTATAGASSGSGSSGSSSSGGTGTGQVQLQQSGAELVRPGSSVKISCKASGYAFSSYWMNWVKQRPGQGLEWIGQIWPGDGDTNYNGKFKGKATLTADESSSTAYMQLSSLASEDSAVYFCARRETTTVGRYYYAMDYWGQGTSVTVSSSQSFPNVFPLVSCESPLSDKNLVAMGCLARDFLPSTISFTWNYQNNTEVIQGIRTFPTLRTGGKYLATSQVLLSPKSILEGSDEYLVCKIHYGGKNRDLHVPIPSKPCPPCKCPAPNLLGGPSVFIFPPKIKDVLMISLSPIVTCVVVDVSEDDPDVQISWFVNNVEVHTAQTQTHREDYNSTLRVVSALPIQHQDWMSGKEFKCKVNNKDLPAPIERTISKPKGSVRAPQVYVLPPPEEEMTKKQVTLTCMVTDFMPEDIYVEWTNNGKTELNYKNTEPVLDSDGSYFMYSKLRVEKKNWVERNSYSCSVVHEGLHNHHTTKSFSRTPGK", "values": [{"measurement": "Kd", "setting": "[1]", "result": 8.63, "unit": "nM"}, {"measurement": "koff", "setting": "[1]", "result": 0.000451, "unit": "s⁻¹"}, {"measurement": "kon", "setting": "[1]", "result": 52200, "unit": "M⁻¹ s⁻¹"}, {"measurement": "Kd", "setting": "[2]", "result": 1.06, "unit": "nM"}, {"measurement": "koff", "setting": "[2]", "result": 0.000123, "unit": "s⁻¹"}, {"measurement": "kon", "setting": "[3]", "result": 116000, "unit": "M⁻¹ s⁻¹"}]}
